Source: article PMC3432114

Tests used:
[1] = biological target: N-methyl-D-aspartate receptor (NMDAR) of C44 murine erythroleukaemia (MEL) cell membranes (mouse (endogenous in C44 MEL cells)) (UniProt P35438)
RAGE (Homo sapiens) = RAGE (Homo sapiens) (UniProt Q15109); details: cited from earlier work
Sequence of UniProt Q15109 (Q15109 23-404): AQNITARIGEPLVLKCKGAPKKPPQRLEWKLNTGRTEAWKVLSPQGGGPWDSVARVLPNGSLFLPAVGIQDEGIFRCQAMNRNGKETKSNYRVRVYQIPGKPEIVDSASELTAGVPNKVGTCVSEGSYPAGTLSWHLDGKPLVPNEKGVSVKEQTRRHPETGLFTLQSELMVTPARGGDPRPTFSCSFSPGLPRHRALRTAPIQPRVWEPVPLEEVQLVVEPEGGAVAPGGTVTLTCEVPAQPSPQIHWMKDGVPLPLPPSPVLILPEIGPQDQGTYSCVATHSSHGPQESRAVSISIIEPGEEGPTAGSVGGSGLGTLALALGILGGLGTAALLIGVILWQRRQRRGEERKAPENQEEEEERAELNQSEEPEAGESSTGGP

Sequence of HMGB1 (P09429 whole entry): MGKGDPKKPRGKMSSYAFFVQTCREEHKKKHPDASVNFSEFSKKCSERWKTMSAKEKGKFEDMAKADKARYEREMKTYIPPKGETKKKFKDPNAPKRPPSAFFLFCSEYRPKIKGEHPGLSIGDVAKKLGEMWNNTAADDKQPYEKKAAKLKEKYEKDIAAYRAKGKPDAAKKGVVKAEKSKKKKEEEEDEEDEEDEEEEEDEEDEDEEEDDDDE

Row | percent of differentiated (benzidine-positive) MEL cells after 24 h with HMBA and 250 pM HMGB1 (6% with HMBA alone; the increase abolished by MK-801 and antagonized by CGS 19755) [1] [%] | Substance | Kd (RAGE (Homo sapiens)) [nM]
1 | 12 | high mobility group box 1 (HMGB1) protein, eukaryotic recombinant (from UniProt P63159 1-215) (natural protein) | –
2 | – | HMGB1 (from UniProt P09429) | 10
